{"source": "paper PMC7445246", "about": "(Signal Transduction and Targeted Therapy, 2020)", "conditions_in_all_cases": "both partners purified", "key": {"recombinant human PD-L1 [1]": {"target": "T1, recombinant human PD-L1 (Homo sapiens, UniProt Q9NZQ7)", "T1 construct": "PD-L1, human; the methods are probably in the supplementary material; In the internalization assay hPD-L1 was expressed on CHO-K1 cells; also called hPD-L1", "T1 sequence (Q9NZQ7 19-290)": "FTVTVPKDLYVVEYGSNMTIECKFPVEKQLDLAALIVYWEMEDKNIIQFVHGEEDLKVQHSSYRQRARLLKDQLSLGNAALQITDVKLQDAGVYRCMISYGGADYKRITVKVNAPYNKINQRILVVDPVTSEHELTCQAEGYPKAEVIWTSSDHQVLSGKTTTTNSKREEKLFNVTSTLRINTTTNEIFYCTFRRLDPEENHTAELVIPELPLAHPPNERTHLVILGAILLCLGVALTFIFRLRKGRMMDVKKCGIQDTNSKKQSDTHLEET", "test": "SPR; JS003 captured on biosensor; association with recombinant human PD-L1 at pH 7.4; dissociation followed at pH 5.5 (compared with pH 7.4)"}, "recombinant human PD-L1 [2]": {"target": "T1, recombinant human PD-L1", "test": "SPR; JS003 captured on biosensor; association with recombinant human PD-L1 at pH 7.4; dissociation followed at pH 6.0 (compared with pH 7.4)"}, "recombinant human PD-L1 [3]": {"target": "T1, recombinant human PD-L1", "test": "SPR; JS003 immobilized on the chip; serial dilutions of PD-L1 from 0.75 nM to 24 nM flowed through"}}}
{"binder": "JS003 (antibody, V domains shown, humanized PD-L1 specific mAb; Fab part as the heavy chain of m2; as the light chain of m2; Whole humanized mAb; Labelled with CypHer5E in the internalization assay only; also called JS003 antibodies) VH: QGQLQESGPSLVKPSQTLSLTCTVSGDSITRGYWNWIRKHPGKGLEYIGYISYTGSTYSNLSLKSRVTISRDTSKNQYYLKLSSVTAADTAVYYCATSTGWLDPVDYWGQGTLVTVSS VL: DIVMTQSPDSLAVSLGERATINCKASQNVDTSVAWFQQKPGQPPKALIYSASFRYSGVPDRFSGSGSGTDFTLTISSLQAEDVAVYFCQQYYGYPFTFGQGTKLEIK", "values": [{"measurement": "fold faster dissociation rate at pH 5.5 than at pH 7.4", "setting": "recombinant human PD-L1 [1]", "value": 8.7, "unit": "fold"}, {"measurement": "fold faster dissociation rate at pH 6.0 than at pH 7.4", "setting": "recombinant human PD-L1 [2]", "value": 3.4, "unit": "fold"}, {"measurement": "Kd", "setting": "recombinant human PD-L1 [3]", "value": 288, "unit": "pM"}]}
